Legend:
Type in all cases: cell-based, human
iPS cells [1] = experiment: Two-dimensional adhesion culture of iPS cells with BMP4, hCG in culture supernatant by GONASTICK W; settings: 2D adhesion culture, StemFit, BMP4 present
Protocol: In GONASTICK W, about 0.5 to 1 mL of the culture supernatant was sampled, and a test strip was soaked therein. After the soaking was completed, the determination surface of the test strip was placed to face upward and allowed to stand until the culture supernatant passed through the determination window and reached the reaction end window. […] The detection sensitivity of the present examination reagent is 25 IU/L, and a blue control line corresponding to an hCG concentration of 1,000 IU/L is printed in advance on the determination window, which can be visually compared with the determination line.
In a case where a line equal to or more blue-colored than the control line was visually observed on the determination line, it was judged as positive (+).
In a case where the line was not visually observed on the determination line, it was determined to be negative (−).
In a case where a line that was less blue-colored than the control line but was visible was visually observed on the determination line, it was determined to be (+/−).
Laminin (iMatrix-511: Nippi. Inc.) was diluted with Dulbecco's phosphate buffered saline (DPBS), 1 mL thereof per well was dispensed into a 6-well plate (Falcon TC: #353046), and the plate was allowed to stand in a 37° C. incubator for 1 hour to be coated with laminin. 2 mL of an iPS cell medium (StemFit (registered trade name) AK02N: Ajinomoto Co., Inc.) to which 2 μL of a solution containing 50 μg/mL BMP4 (R&D Systems Inc.) had been added was dispensed into the laminin-coated plate, and iPS cells (4×10^4 cells/well) were seeded therein. The culture was continued while appropriately changing the medium, and the hCG contained in the culture supernatant was detected using a drug for in vitro diagnosis for the pregnancy test, GONASTICK W (MOCHIDA PHARMACEUTICAL Co., Ltd.), whereby the differentiation induction into a placental tissue was checked. As a negative control, the same culture was carried out using a medium to which BMP4 had not been added. The hCG was started to be produced on the 7th day of culture; however, the hCG production stopped around the 18th day (Table 1).

iPS cells [2] = experiment: Two-dimensional adhesion culture with BMP4, hCG quantified by i-STAT cartridge Total β-hCG
Protocol: (§1) In the i-STAT cartridge Total β-hCG, about 17 μL of the culture supernatant was sampled, injected into the reagent cartridge, and inserted into the single-purpose analyzer.
Two-dimensional adhesion culture was carried out by the following method. Laminin (iMatrix-511: Nippi. Inc.) was diluted with Dulbecco's phosphate buffered saline (DPBS), 1 mL thereof per well was dispensed into a 6-well plate (Falcon TC: #353046), and the plate was allowed to stand in a 37° C. incubator for 1 hour to be coated with laminin. 2 mL of an iPS cell medium (StemFit (registered trade name) AK02N: Ajinomoto Co., Inc.) was dispensed into the laminin-coated plate in a state where a BMP4 solution was not added, iPS cells (4×10^4 cells/well) were seeded therein, the culture was continued while appropriately changing the medium, and from the 4th day of culture, 2 mL of an iPS cell culture medium (StemFit (registered trade name) AK02N: Ajinomoto Co., Inc.) to which 2 μL of a solution containing 50 μg/mL BMP4 (R&D Systems Inc.) solution had been added so that the BMP4 concentration was to be 50 ng/mL was used at the time of the medium exchange.
(§2) On the other hand, three-dimensional suspension culture was started at the same time using the same iPS cells used in the two-dimensional culture adhesion culture. 30 mL of an iPS cell medium (StemFit (registered trade name) AK02N: Ajinomoto Co., Inc.) was dispensed into a 30 mL volume spinner flask (ABLE Corporation), and then iPS cells (1.3×10^6 cells/mL) were seeded. In the same manner as in the two-dimensional adhesion culture, BMP4 was not added at the start of culture, but a medium to which a solution containing 50 μg/mL BMP4 (R&D Systems Inc.) was added at the same proportion as that used in the two-dimensional adhesion culture was used after the 4th day of culture. After the start of culture, the addition of BMP4 to the medium was continued until the 14th day of culture while the medium was exchanged every 3 to 4 days, and thereafter, a medium to which BMP4 had not been added was used. In three-dimensional suspension culture, stirring culture was continued in a spinner flask throughout the culture period. While continuing the two-dimensional adhesion culture and the three-dimensional suspension culture, the culture supernatant was appropriately sampled after the 7th day of culture, and the amount of hCG produced was quantified using the i-STAT cartridge Total β-hCG. Since there are differences in the number of cells that can be seeded at the start of culture and the adding amount of medium between the two-dimensional culture and the three-dimensional culture, there are differences in the hCG concentration and the total hCG production in the culture supernatant, and thus it is not possible to simply compare them. For this reason, the hCG quantification value on the 7th day of culture after the start of differentiation induction into the placenta was set to 100, and the ratio of the hCG quantification value on the subsequent culture measurement day to the hCG quantification value on the 7th day of culture was calculated. That is, in a case where the hCG quantification value on the 7th day is set to 100 in each of the two-dimensional and three-dimensional culture forms, the subsequent changes after the 7th day in the hCG production amount are shown in FIG. 2. It was confirmed that in the two-dimensional culture, the decrease in hCG production amount is particularly remarkable after the 15th day of culture, whereas in the three-dimensional culture, the hCG continues to be produced after the 15th day, and even on the 25th day of culture, 10 times or more of the hCG production is maintained as compared with the 7th day of culture.

iPS cells [3] = experiment: Three-dimensional suspension culture with BMP4, hCG quantified by i-STAT cartridge Total β-hCG
Protocol: as §1, §2

[4] = Three-dimensional culture, day 10
[5] = Three-dimensional culture, day 14
[6] = Three-dimensional culture, day 17
[7] = Three-dimensional culture, day 19
[8] = Three-dimensional culture, day 21
[9] = Three-dimensional culture, day 25

B1: BMP4: bone morphogenetic protein BMP4 (R&D Systems Inc.), added to iPS cell medium at 50 ng/mL to induce differentiation (protein, UniProt P12644 293-408, looked up)
Bone morphogenetic protein 4: SPKHHSQRARKKNKNCRRHSLYVDFSDVGWNDWIVAPPGYQAFYCHGDCPFPLADHLNSTNHAIVQTLVNSVNSSIPKACCVPTELSAISMLYLDEYDKVVLKNYQEMVVEGCGCR
- hCG production (iPS cells [1]; day 7): + (a line equal to or more blue-colored than the control line was visually observed on the determination line, it was judged as positive (+))
- hCG production (iPS cells [1]; day 11): + (a line equal to or more blue-colored than the control line was visually observed on the determination line, it was judged as positive (+))
- hCG production (iPS cells [1]; day 15): + (a line equal to or more blue-colored than the control line was visually observed on the determination line, it was judged as positive (+))
- hCG production (iPS cells [1]; day 18): +/− (a line that was less blue-colored than the control line but was visible was visually observed on the determination line, it was determined to be (+/−))
- hCG production (iPS cells [1]; day 21): − (the line was not visually observed on the determination line, it was determined to be negative (−))
- hCG production (iPS cells [2]; BMP4 50 ng/mL from day 4, day 7): 6.6 IU
- hCG* production (hCG production on each of culture days/hCG production amount on 7th day) × 100 (iPS cells [2]; day 7): 100 AU
- hCG production (iPS cells [2]; day 11): 8.0 IU
- hCG* production (relative to 7th day × 100) (iPS cells [2]; day 11): 120 AU
- hCG production (iPS cells [2]; day 15): 5.0 IU
- hCG* production (relative to 7th day × 100) (iPS cells [2]; day 15): 75 AU
- hCG production (iPS cells [2]; day 18): 4.1 IU
- hCG* production (relative to 7th day × 100) (iPS cells [2]; day 18): 62 AU
- hCG production (iPS cells [2]; day 22): 1.4 IU
- hCG* production (relative to 7th day × 100) (iPS cells [2]; day 22): 20 AU
- hCG production (iPS cells [2]; day 25): 1.6 IU
- hCG* production (relative to 7th day × 100) (iPS cells [2]; day 25): 25 AU
- hCG production (iPS cells [3]; Three-dimensional culture, BMP4 day 4 to 14, day 7): 1.6 IU
- hCG* production (hCG production on each of culture days/hCG production amount on 7th day) × 100 (iPS cells [3]; Three-dimensional culture, day 7): 100 AU
- hCG production (iPS cells [3]; [4]): 61 IU
- hCG* production (relative to 7th day × 100) (iPS cells [3]; [4]): 3,936 AU
- hCG production (iPS cells [3]; [5]): 79 IU
- hCG* production (relative to 7th day × 100) (iPS cells [3]; [5]): 5,044 AU
- hCG production (iPS cells [3]; [6]): 120 IU
- hCG* production (relative to 7th day × 100) (iPS cells [3]; [6]): 7,692 AU
- hCG production (iPS cells [3]; [7]): 120 IU
- hCG* production (relative to 7th day × 100) (iPS cells [3]; [7]): 7,692 AU
- hCG production (iPS cells [3]; [8]): 54 IU
- hCG* production (relative to 7th day × 100) (iPS cells [3]; [8]): 3,465 AU
- hCG production (iPS cells [3]; [9]): 23 IU
- hCG* production (relative to 7th day × 100) (iPS cells [3]; [9]): 1,498 AU
- hCG production on 25th day as compared with the 7th day of culture (iPS cells [3]; three-dimensional culture): ≥ 10 times

From US20220154138A1, “METHOD OF PRODUCING PLACENTA-LIKE ORGANOID, PLACENTA-LIKE ORGANOID, AND PRODUCTION OR TEST KIT” (FUJIFILM Corporation, priority 2020, published 2022)
